Results as given in article doi:10.1101/2021.03.19.436221.

Molecular target: ALX301 (human)
Assay: SPR

Kd: 3.41 nM
B1: mouse CD47 (natural protein)
chain: QLLFSNVNSIEFTSCNETVVIPCIVRNVEAQSTEEMFVKWKLNKSYIFIYDGNKNSTTTDQNFTSAKISVSDLINGIASLKMDKRDAMVGNYTCEVTELSREGKTVIELKNRTVSWFSPNEKILIVIFPILAILLFWGKFGILTLKYKSSHTNKRIILLLVAGLVLTVIVVVGAILLIPGEKPVKNASGLGLIVISTGILILLQYNVFMTAFGMTSFTIAILITQVLGYVLALVGLCLCIMACEPVHGPLLISGLGIIALAELLGLVYMKFVASNQRTIQPPRNR
